Assay results from the domain aggregation screens of Martell et al. (2025).

Experiment: soluble fraction after stress (log2 fold change); higher = more stays soluble; pooled small domains, quantitative proteomics
Settings: stress: 75 degC
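Also: 20 min heating vs room temperature control held 20 min.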

Sequence	soluble fraction (log2)
HMSMSVLFSELDQKDAGVIVEKLKERKIPYELQSGGSAIMVPANVLHETRLQLAAEGLPQSS	-0.0383
HMSMTVHGALRLLQLPTIADRPYTLKEIREAYREQAQNHHPDAGGSADAMRRLNEAYQFLKERYRQA	-0.449
HMSNEKVVKFAQELLVDEERSAISPALISAKIDQVLMFKPAWNEGLDRDAVVNELVRRFSIW	-1.24
HMSNGFFELKTSQQDELIDLIDSHTNFVRTKIEGELITAFLKLPMDAEEFNKLLFTNGIILSHLVKRK	-0.713
HMSNIIGNTAYSAIPDKQYFRLKSETAEKVANYLTENNIPFSGRINGDKTTLTIGQKNVDDYKAAVATVTG	0.0528
HMSNIVNYEVYVYQNDAWDLLARYPSEKRAEAIEYAKSTEFSLNRPTKVIRETYDLDTQKFQEALIYLSE	-0.743
HMSNLNHSFQYKKNIGRKISLTYLGRDNESISKIYELIDSNDSGILVKNKNVEIFIHYEKIVSAKIKVS	-1.78
HMSNLTDLVSAKEAEVYLHFLESGSTAGMTEAELRAVRKIEELIQSNKIDYNGILRIRNETVK	0.0216
HMSNNLAYSQFLDRVKNKEIRKVEIRGQSIVGYTSNNETFKTYAPLNDPKMYDELLTNDVQVQVDPP	-0.0765
HMSNQLAVPDVTNMKANAAADRLRQQGLRVELKTESSNTVPRGMAIRTDPAASTMVARGGRVTLIISSGKG	-0.248
HMSNSGFVKNNGKTEFYDASGRQAKSSWINISGKWYYFDLNGTMVTGWQRISNKWYYFLEDGSK	-0.0724
HMSNSMISKDKAMSIALAKVSGATSSNIYIELEKDDGRYTYEGEINFNNKEYEFEIDAYTGNILKWEVDSI	-0.806
HMSNTPHSREVLLEMDAVRRLLAVGEEKGEVDRADLQGAFEEAELGRGDLDGVLSILREYDVPLAR	0.0604
HMSNVIYFNYNDYKFLFMGDAGVDKETDILEKYTLSNIDFLKVGHHGSDTSSNKGFIDSIQPKYSLIS	-1.53
HMSNWTILIIQGSAHLIDLDSKITEIDGFGSFPTKILQDYNLNEEFEIFDTNVKMVNSVQSDLQSN	-2.48
HMSNYIVELSSSEKIDDIDNNNNLINSFFSKSDSQWEYKLVFKNKNEMDVFVKKISTNNKIISYKTSS	-1.17
HMSPAETGIYHILVENGKPNRHGLDATNKNENWLRQFLITQNTRLEDVFLLLADDGGGIRFFKSQ	-1.26
HMSPAPVSVDHLAFPTRDLEATDHFYSKVVGATLVHAESGYSPSWKSDYLLITYALPDGTRLSFFDWP	0.105
HMSPDTREAILAAARTAFARDGYQTSLRGIARDAGVDPALVHHYFPDRATLFAKAVIESTAG	-0.0532
HMSPFAHHLHELRMRHGIRQNELAELIGYDQTYISALEVGLKGPPTPEFVDKLVEGLALSRTEEAALRSAA	-0.483

Sequence	soluble fraction (log2)
HMSPFYALDEVDSFLDGVNVERLAALIARQAEQAQFLVVSHRRPMIGASTRTIGVTQARGAHTQVVGLP	-0.312
HMSPGAKIEVTGNTVNLRAGPGTNYDTRGQVKKGEQLPLLGEQGGWYRVQTSRGVAYLAGWLARVLT	-1.43
HMSPLDSHLGRRIALRRQQLNTSAADLEKAISMVPGSVARFEAGRQSLNATQLFTLSRALDVPVLYFFEG	-0.705
HMSPREDQQSRKQHILEAAAVLFAERGYYKTTTADVARAVGVTQPYVFHFFKSKEELYLAVL	0.163
HMSPSDLSAEAQKVYALLDGRELSFDTLVEESGFDTGSLLAILMRLEMKMLVEHGADQVYRRSG	-1.51
HMSPVKAPLPGVVLDIHVSVGQEVKASDTVVTLEAMKMENAIKAGVDGKVASISVGKGDSVLEGAVLLTI	-0.0893
HMSQAVTMLKAGRLLANSKGTGAAVRDLEPGMLLYPTGQKDGTMWEVEDEMGNKGWVNSTSMQLA	0.271
HMSQDEKITNYIYEGNKNTQTEAFVEAEKSYRKALSLSPEKPEALYNLGNTHFLDKQYDEASQRFF	0.0479
HMSQDINVFIKTNPENATIIWDGESKGTNGIFKSNAGAHRLRIEMQGYESIDQDIQVSDKQFSFEYNLKKE	0.138
HMSQIANLLLSKNIKVNNQNIIYYETVLKYLPNNEKKEFFINAMKNNIYFTEEEIKNFGNIFN	-2.74
HMSQIQIKLDQAIMQLPEKQRFVFMLRYFEELPYEKIAQITETSIGGAKANFHQALKKMQEIIQ	-2.96
HMSQKVQEDFLGDIRKNEIAVTVFLINGVKLQGVITWFDDASILLRRDGHTQLIYKHAVSTIMPGVAVDI	-0.582
HMSQLYINATDDGWVIGNLPADAREVLLTTLGGQVVARYHVTAPSLRVKAPRKGVYIVSVETA	-2.11
HMSQQVVTDGVNLRLRYAPSPDAETYKWADGTNRHPEKGERFPYLGDIGDFYRIDYKGLVLYVSKQHTHL	-2.04
HMSQRITYTEFVQMVKDDKVEKVEVGANQYNITPKSDDKTLVKMTYYTGFIKDENLLDLLNKHKVEIDGYI	-0.792
HMSQSIGQEKALSIALADAGVQKENALGLEVKGEYDDGQLLYEVEFRAGGVEYEYEVRASDGRIVKAERD	0.0638
HMSQSMEVLYTDLTDKDAAAIVEKLEEEKIPYQLEDQGTTILVPPGVKYTTRLKLAAEDLPKG	0.0723
HMSQYVPDPVLNAALVGYLDFRKQAGKPMTDYSIRLLLVDLAKLSGNPQEQAAILDQSTKNNWIGVYALG	-3.04
HMSRAARLALDALPDEWAQFAESRGLAGSAMAETWETFRDYWQAQPGQKGVKADWAATWRNWVRRETQNRG	-0.378
